4 molecules from patent US20240026407A1, “MODIFICATION OF SAPONINS” (GLAXOSMITHKLINE BIOLOGICALS SA, priority 2020, published 2024) can be followed below.

The chains are these.
B1: 1027 (protein, listed as Dictyoglomus thermophilum)
chain: MKSSNIYSPFDLKCEFTTNPLGVDKKNPIFSWKLRHLEKNEKQTAYQVIVSSSLETINDNIGDVWDTGKVLSSEQVIKYEGKELEPCKVYFWKVRWWDSKDQESPFSVVNTFETGLMNEENWKAKWITKKEHKYEVYSPDGAPFGLNYTIAYAPMFRKSFSISKKIKRARVYIAGLGLYELYINGERIGDRVLDPGQTDYKKRVLYTVYDVSKNIRDGKNAIGVILGNGRYVKEYGYDFPKLIIQVLVEYEDDSIEWIVSDESWKTTYGPITLNSLYHGEIYDGRKEIKGWNLPDFDDSTWENAILAEPPGGKLYSEIYPPIRITKTIKPIKMWSPEPGTYVYDFGQNYTGWIKIKVRTNESGKEIRIRHAELTYEDGTLNYSTNRTALATDVYITKGEGYEEYEPRFTYHGFRYVEILGYPGVPTLEDIEGKVVHTAVESNGEFICSNELINKIHHNIIWGQLSNLMSIPTDCPQRDERMGWMGDAQLSAEEAIFNFDMIGFYRKYLNDIRDAQKENGSLSDVIPPYWSIYPGDPAWSTAYITIAWYLYQYYGDKYVLEEHYEGFKKYVEFLKKLAPDYIVSFYKYGDWCQPGTVRPKDNSGELTSTFYFYHDVITLSKIAKLLGKEADYKYYSELADKIKSAFNKKFLKEKAYASIPTELSEENVKALLEKYPEDIKDFLRQQFTILSSLGMFTSQTLNTLPLYLNLVPEDKVQDVLKTLLEDIIIRHDYHLDTGIVATRYIFDVLTSYGYDEVAYKIVNQKTYPSFGYMIEEGATTLWERWEKLTSTGMNSHNHIMFGSVDAWFYRVIAGVRVGEPGWNKIIFEPHPVGDLKYAKARLNTIKGEVEINWQKTENIFSMRISVPVNSEGEVHVPKLFERFVVKEGDNIIYEKKGDLEENEKYIVIRVGSGSYNFYMEKI
B2: 1039 (protein, listed as Lactobacillus acidophilus)
chain: MKITNILVNQMEHPLGFDLSNLRITFELTEMENIIGNVYKNISVGKVESEQPIYFEPDELYENNAFKINMELEPRTKYWVKIGVRNDNEVTSSNTWFETGKMDEKFYGKWITNKKDVENTLFKKDFELANKQIKSARLYSTTLGVYEVDLNGVKVGNEFLAPGFTNYDKIVQLQTYDVTKLVTKNSNNELVFSVGDGWYKGNLGFDGGQTNIYGDKKSILAELHVTYTDNSEQVISTDSSWLTTEGKIIKSSIYYGEDIDDTKDILDWSSVVILNKSTSIVRDRLSLPIMKKEVLKVKEIIHTPKNEIVLDFGQNHAGWPVFINRLARGKKITLQMGEILQDGNFYNKNLRLARAAFTYISDGEEKLIRPHFTYFGFRYVKISGVTDVNKDDFESWVLYSDLKQTGFIKTNNDKVNRLFKNVIWGQKSNFMDVPTDCPQRDERLGWTGDAEIFAPTASFNMNTYEFYKKYAKDMLVEQEDNKGMLPIIVPSLKQKSTGMAIWSDAATIIPWVTYRFFDDLGVLKQNYSQMKNWVDWITQNTKTKYLWIGQMQLGDWLSLDNGANPQGKTNEDYIASIYYFVSASIVSKAARLLHYDMESDYYENLARNIKTNILNEFVTEKGRIAIDTQTALVLALHFGLVHDYQKSQVVADLVKKVKDDNKHLQTGFVGTPFLLSVLSNNNQHHLAMDIFMQEDCPSWLYEVNMGATTIWERWNSVLPDGKMNPEGMNSLNHYSFGAVMMWMYQCVVGLNQFDAGFKEIYFAPKFDCRLKDIYSEFDSTYGKIKVEYHLETNEKHLIRMNLVIPFGVKMKVKLPRSAKYLINGKEKIGIVKLEYGKYDISYIPTKSYLNYYDLNSKLVDILDNNDLVKRIDQIDEKILQKVKRMGNTRSIFINKKIDELLDFEEISQEEKNQLVDILHKTIFIKLNLF
B3: 1079 (protein, listed as Lunatimonas lonarensis)
chain: MSMIRILSLLFLWMLSFSLVAQSTFSLQKLKVDHQENPLGIETASPVFSWQMQVAGSERGVYQKAYRIQVSDSHGALIWDSQQVSSDRSVGIRYQGEKLRPITAYTWSLTVWNQSDHSQTEIGKFETGWMDSPNAWKNAEWIGGDSEDLVLYAHALAVFKAGVTIQLDQESKSTRAAFLLGGNDVRLMKKNLNILQMESGRDGSYVGFELDISQVNGTEEGLALLHAYRVGYHADDQVGTPFHSMPIPQRLIHEGNKYEPHDLFLECNLGIFQVYLNGTENENKISPNDPSKPSYVAQGLNLNPMGEGGNYINFPLLGDIGFKTDSGQLATFSNLTISNYRRPGNVLFSEAESTISIFDKHPNIRAIAGRYQVGTDNKAVLALEDPSRNAPPMLRTTFTTQAKKIKKARIYATARGIYEMYLNGKRVGQDYFNPGLTQYNKNHQYQIYEVTDALESNAANAWGAWLSEGWWSGHITFSGGNWNFFGDRQSFLGTLLIEYEDGTVQEINTQPQSWKLFTDGPILNGSFFQGEVYDANKESVLTGWSLAQFDDSSWKSAQNVPLEGTTYTGPMTNGTLDYKQLTLSAQNDPTPTIIRRLKAVSMEEVRPGVFVYDMGQNMVGVPKITLSHGHQGDTVILRFAEVKYPDLPAYHPHSGMIMMENIRAALTHDIYIRKGGDEVIQPRFTFHGYRYVEITGIKNAPPLNAVEGLVISSVDSIRSSYTTSNQDVNKLWENITWSMLGNFLSIPTDTPARNERMGWSGDINVFARTSTYLGEVLPFLKRHMMAMRDLQAANGKFADVTPVGNGFGGTLWGSAGIVLPWELFLQYGDTTILEENYEAMKAYLAFLETREDKDSGVQMEGPLGDWLSPEVNKNDNTQFFTAYQAYGYGILHQVAQILGKPTEAATFQAKFASRKKFLMDTYFDARTGKSIHSGVSTQGRGGSTAPGTQKGDPIDTQASYAIPLYLEVIDGDLQEKVLANLIATLARENVDDMGILRPAYSLMTGFIATAAINEAISRYGDPVHAYRLLQQTSYPSWLYSVKNGATTIWERLNSYTVEDGFGGNNSMNSFNHYSFGAVGAWMYMYSLGIQRHPEIPGFKKFRLQPQPDPDGKMTWAKGHYDSMYGRIHSEWKRGVDSWEYKATVPPNTSAVLVLPVKDLERVSEGGKMLTEVLGITLISRENGYITMELSSGSYTFSIE
B4: 1061 (protein, listed as Rhizobium leguminosarum)
chain: MNFQPAAISGNLVSRTWSGDMIAPLSDGGQGTAASFVSKTFEHDGTKLPAELFISALGLYRCFINGVRVGSDLLTPGWTNYDDRLAYQRYDVSNLLKPGLNRIEIWLADGWYRSPLMWGAQAIPNCWGDRIGAIADLIGADGTVLSTDTTWRSGVLPILRSGIYFGEIYDARQENCVETHGTEKLAFDKALLVAHETAAVRELRPLTAVENWTDDEGRTIYDFGQNAGGYIRYTVRGTAGAEVRVEHSEVLGPDRHFDNRNYRTAAAHTVYTLRGNGDETYAPHFTFHGFRYARVTIKGDAKILAIASIPISSVPEPAGGFTSGNALVNRLVENTIWSQRANFVEVPTDCPQRDERLGWTGDAQVFAATACWLSDSQSFLRKYLRDVMADQREDGAVSHFSPDPTRLHPANFPGYAGSTGWGDAIVVIPWVLYTHYGDRAVLSECLESMVRWVDFVWSISDGPLVRPPSRWGDRGFTFGDWLQPVGDNRKPRPTIADDCAATLYHFISTDLLARIAATLGEHALEEKMKQRANEIRRAFTNEFITPAGRLAHNDQTSYALAFLHDLIPAEHRQAAQQHFRQVIIDADYKIGTGFIGTPALLPALTKLGMDDLAEKVFLQEDVPGWLYQVSKGATTIWERWDSMAPDGTIYEPDMNSYNHYAYGAVCQWLFESVAGISPSPSAPGFAEVIVDPAPIPSLSPVSAYHDISQGRIEAGWHCDGKKVTYVLTLPEGCIGWFRPGKRHQNPSLNGEPVVEEAVLAPGTHRLVFSLPNS

The first assay is described as follows: Experiment 6-1: screening of rhamnosidases for derhamnosylation of saponins in treated bark extract (2%), desglucosyl-QS-17 2134 to QS-21 1988 (PAR %). Particulars: TBE 2%, pH 7.5, 30 degC, 18 h; TIC peak area ratio percent, LCMS/MS; negative controls 2.719, 2.158. Format: biochemical, Quillaja saponaria.
As for B1, the “Peak75 (PAR %)” value is 0.094%.

As for B2, the “Peak75 (PAR %)” value was 0.683%.

As to B3, the “Peak75 (PAR %)” value came out at 0.247%.

B4: the “Peak75 (PAR %)” value is 0.230%.

The nature of the next assay: Experiment 6-1: screening of rhamnosidases for derhamnosylation of saponins in treated bark extract (2%), QS-17 2296 to QS-18 2150 (PAR %). Format: biochemical, Quillaja saponaria. The note with it: TBE 2%, pH 7.5, 30 degC, 18 h; TIC peak area ratio percent of rhamnosylated starting saponin to derhamnosylated product, LCMS/MS; negative controls 4.876, 5.225.
Consider B1, for which the “QS-17 (PAR %)” value was 0.324%.

Turning to B2, the “QS-17 (PAR %)” value was found to be 0.492%.

Regarding B3, the “QS-17 (PAR %)” value is recorded as 0.315%.

As for B4, the “QS-17 (PAR %)” value is on record as 0.245%.

The next assay in a line: Experiment 6-1: specificity of rhamnosidases towards other rhamnose residues (C3 saccharide rhamnose, C28 saccharide rhamnose). Particulars: TBE 2%, pH 7.5, 30 degC, 18 h; LCMS/MS; negative controls 0.18, 0.17. In kind it is biochemical, Quillaja saponaria.
For the molecule B1, the “ratio PP/QS-21” value was determined as 0.19.

On to B2, for which the “ratio PP/QS-21” value amounted to 0.18.

Take B3: the “ratio PP/QS-21” value worked out at 0.18.

For B4, the “ratio PP/QS-21” value amounted to 0.19.

The next assay is described as follows: Experiment 6-2: screening of rhamnosidases for derhamnosylation of saponins in treated bark extract (25%), relative % of Left, Middle and Right Peak by UV HPLC. In kind it is biochemical, Quillaja saponaria. The note with it: TBE 25%, pH 7.4, 19.5 h, mainly QS-17 family, negative control 24%.
In the case of B1, the “Left Peak” value turned out to be 18%.

B2: the “Left Peak” value came to 16%.

For the molecule B3, the “Left Peak” value amounted to 14%.

Regarding B4, the “Left Peak” value is on record as 13%.

Staying with this assay, now noted: TBE 25%, pH 7.4, 19.5 h, mainly QS-18 and desglucosyl-QS-17 family, negative control 50%.
For B1, the “Middle Peak” value is listed as 55%.

For the molecule B2, the “Middle Peak” value stood at 57%.

As to B3, the “Middle Peak” value is 58%.

Consider B4, for which the “Middle Peak” value is on record as 59%.

The same assay, now with this note: TBE 25%, pH 7.4, 19.5 h, mainly QS-21 family, negative control 26%.
For B1, the “Right Peak” value is reported as 27%.

On to B2, for which the “Right Peak” value was 27%.

As to B3, the “Right Peak” value is recorded as 28%.

Consider B4, for which the “Right Peak” value stood at 28%.

The next assay is described as follows: Experiment 6-3: screening of rhamnosidases for derhamnosylation of saponins in crude bark extract (80%), relative % of Left, Middle and Right Peak by UV HPLC. Format: biochemical, Quillaja saponaria. The note with it: CBE 80%, pH 7.4, 30 degC, 19.5 h, mainly QS-17 family, negative control 27%. As for the experimental part: Selected variants were expressed and lysed as in the method of experiment 6-1.
Crude bark extract (CBE) solution was adjusted to pH 7.4 by addition of NaOH (2M). 20 uL clarified lysate was transferred into fresh 96 well PCR plates. 80 uL CBE solution (pH 7.4) was added to each well of lysate to a final concentration of 80%. Plates were incubated at 30 degC with shaking for 19.5 h.
Quenched with 100 uL MeCN+2% AcOH and shaken at room temperature for 10 mins prior to centrifugation (10 min, 4 degC) to remove particulates. Samples were analysed by UV HPLC using method of Experiment 4-4.
Three key peaks of interest are apparent using this chromatography: Left Peak (retention time approximately 2.30-2.35 min) comprising mainly QS-17 family components; Middle Peak (retention time approximately 2.37-2.42 min) comprising mainly QS-18 family components and desglucosyl-QS-17 family components; and Right Peak (retention time approximately 2.44-2.50 min) comprising mainly QS-21 family components. Peak identity was supported by MS/MS.
Enzyme mediated hydrolysis of the alpha-O-rhamnosylation at the C2 position of the arabinofuranose moiety of QS-17 family components leads to a decrease in Left Peak and an increase in Middle Peak due to formation of QS-18 family components. Enzyme mediated hydrolysis of the alpha-O-rhamnosylation at the C2 position of the arabinofuranose moiety of desglucosyl-QS-17 family components leads to a decrease in Middle Peak and an increase in Right Peak due to formation of QS-21 family components.
The relative percentage of each peak was determined. A decrease in Left Peak and a concomitant increase in Middle Peak and Right Peak is observed for enzymes active under these conditions.
As for B1, the “Left Peak” value was determined as 26%.

As to B2, the “Left Peak” value turned out to be 25%.

Regarding B3, the “Left Peak” value is reported as 25%.

Regarding B4, the “Left Peak” value came to 26%.

The same assay, now with this note: CBE 80%, pH 7.4, 30 degC, 19.5 h, mainly QS-18 and desglucosyl-QS-17 family, negative control 48%.
For the molecule B1, the “Middle Peak” value was found to be 48%.

With B2, the “Middle Peak” value was found to be 48%.

With B3, the “Middle Peak” value worked out at 48%.

As for B4, the “Middle Peak” value was determined as 48%.

Staying with this assay, now noted: CBE 80%, pH 7.4, 30 degC, 19.5 h, mainly QS-21 family, negative control 26%.
Turning to B1, the “Right Peak” value amounted to 26%.

For B2, the “Right Peak” value is given as 27%.

With B3, the “Right Peak” value came to 27%.

As to B4, the “Right Peak” value was 27%.

The next assay is described as follows: Experiment 6-1: screening of rhamnosidases for derhamnosylation of saponins in treated bark extract (2%), QS-17 2310 to QS-18 2164 (PAR %). In kind it is biochemical, Quillaja saponaria. The note with it: TBE 2%, pH 7.5, 30 degC, 18 h; TIC peak area ratio percent, LCMS/MS; negative controls 3.061, 2.429.
With B1, the “Peak57 (PAR %)” value came out at 0.053%.

In the case of B2, the “Peak57 (PAR %)” value amounted to 0.000%.

As for B3, the “Peak57 (PAR %)” value was 0.000%.

Regarding B4, the “Peak57 (PAR %)” value was 0.029%.
